Data as given in the supplement of paper PMC11865577.

Columns and labels:
Assay in all cases: pull-down binding Z-score (relative to library population); higher = stronger binding
Details in all cases: RNA library: Library-2
[1] = test system: TO-N3-2 (biotin conjugate)
Outline: (§1)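 An RNA library (1 μg) carrying a Cy5 or Cy3 end label was heat-folded in phosphate/NaCl/KCl buffer, then incubated for 60 min at 25 °C with streptavidin beads loaded with 100 pmol of biotin-conjugated small molecule. The beads were washed three times, and bound RNA was released in hot SDS and hybridised to a DNA barcode microarray for 20 h at 55.5 °C. Each binding score was derived by subtracting the signal from beads without compound, averaging the barcoded replicate probes after removing the highest and lowest, and expressing the result as a Z-score relative to the library mean and standard deviation.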

TO-N3 (biotin conjugate) = test system: TO-N3 (biotin conjugate)
Outline: as §1

[2] = test system: TO-3-N3-2 (biotin conjugate)
Outline: as §1

[3] = test system: TO-3-N3 (biotin conjugate)
Outline: as §1

| Sequence | pull-down binding Z-score [1] | pull-down binding Z-score (TO-N3 (biotin conjugate)) | pull-down binding Z-score [2] | pull-down binding Z-score [3] |
| --- | --- | --- | --- | --- |
| CUUAUGUUGGUUGCCAUAACAAGUGUGCCUAUUGGGUUCCACGUGCUAGCGCUAACAUAGG | -0.75 | -1.11 | -0.751 | -1.06 |
| CUUCACAUAUGUAUUGUUCUUUUUACCCUCCAGAUGAGGAUGAAGAAGAAGGUGAUUGUGAAG | -1.19 | -0.606 | -0.0402 | -0.494 |
| CUUCAUUAAAAGAAUUACUGCAAAAUGGUAUGAAUGGACGUACCAUAUUGGGUAGUGCUUUAUUAGAAG | -0.219 | -0.621 | -0.0236 | -0.675 |
| CUUCCGAGUCAUAGGAAACUAUGACAUACAGAUCAACAGGGGCUCGCUUGAGCCCCCCAGCCAGUCGGAGG [mMTR1] | -0.704 | -1.09 | -0.458 | -0.97 |
| CUUCUGCUGCUCUUCAACCUGAAGAAGAGCAAGAAGAAG | -0.79 | -0.368 | -0.22 | -0.349 |
| CUUCUUGAAAUACUCCAAAAAGAGAAAGUCAACAUCAAUAUUGUUGGUGACUUUAAACUUAAUGAAG | -0.596 | -0.0282 | -0.0464 | 0.115 |
| CUUCUUGCAUGUGACUUAUGUCCCUGCACAAGAAAAG [SHAPE_invitro_SARS-CoV-2_Motif_449] | -0.177 | -0.309 | -0.257 | -0.329 |
| CUUGAACAAUGGAACCUAGUAAUAGGUUUCCUAUUCCUUACAUGGAUUUGUCUUCUACAAUUUGCCUAUGCCAACAGG | -0.374 | -0.466 | -0.181 | -0.5 |
| CUUGAACAAUGGAACCUAGUAAUAGGUUUCCUAUUCCUUACAUGGAUUUGUCUUCUACAAUUUGCCUAUGCCAACAGGAAUAGGUUUUUGUAUAUAAUUAAG | -1.14 | -1.12 | -0.369 | -0.828 |
| CUUGAUGAUUUUGUUGAAAUAAUAAAAUCCCAAG | -0.743 | -0.636 | -0.266 | -0.466 |
| CUUGGAAAACUUCAAG | -0.863 | -0.471 | -0.265 | -0.101 |
| CUUUACCAACCACCACAAACCUCUAUCACCUCAGCUGUUUUGCAGAGUGGUUUUAGAAAAAUGGCAUUCCCAUCUGGUAAAG | -0.0806 | -0.0807 | 0.13 | -0.0485 |
| CUUUAGUAAUUACCUAAAGAGACGUGUAGUCUUUAAUGGUGUUUCCUUUAG | -1.17 | -1.09 | -0.575 | -0.924 |
| CUUUAUUAGAAG [DMSMaPseq_invitro_SARS-CoV-2_Motif_195] | -0.806 | -0.39 | -0.21 | -0.165 |
| CUUUGAUAAAGCUGGUCAAAAGACUUAUGAAAG | -0.816 | -0.947 | -0.4 | -0.814 |
| CUUUGUAUUGCAUAGACGGUGCUUUACUUACAAAGUCCUCAGAAUACAAAG | -1.1 | -1.28 | -0.719 | -0.811 |
| CUUUUAUGUCUAUGCUAAUGGAGGUAAAGG [SHAPE_invivo_SARS-CoV-2_Motif_154] | -0.771 | -0.68 | -0.487 | -0.524 |

| Sequence | pull-down binding Z-score [1] | pull-down binding Z-score (TO-N3 (biotin conjugate)) | pull-down binding Z-score [2] | pull-down binding Z-score [3] |
| --- | --- | --- | --- | --- |
| CUUUUGAAGAAG [SHAPE_invivo_SARS-CoV-2_Motif_195] | -1.33 | -1.16 | -0.577 | -0.686 |
| GAAAAGAACAAUCAAGGGUACACACCACUGGUUGUUACUCACAAUUUUGACUUCACUUUUAGUUUUAGUCCAGAGUACUCAAUGGUCUUUGUUCUUUUU | 0.0117 | -0.121 | -0.0313 | -0.824 |
| GAAAAUGACUCUAAAGAGGGUUUUUUC [SHAPE_invitro_SARS-CoV-2_Motif_382] | -0.375 | -0.18 | -0.323 | -0.0158 |
| GAAAUACUUGUCACAUACAAUUGUUGUGAUGAUGAUUAUUUC | -1.14 | -1.39 | -0.399 | -1.15 |
| GAAAUUUGACACCUUCAAUGGGGAAUGUCCAAAUUUU [SHAPE_invitro_SARS-CoV-2_Motif_22] | -0.988 | -0.92 | -0.434 | -0.726 |
| GAACCUUGCUCUUCUGGAACAUACGAGGGCAAUUC | -0.153 | 0.239 | -0.0628 | 0.401 |
| GAACUCUACUAAUGUCACUAUUGCAACCUACUGUACUGGUUCUAUACCUUGUAGUGUUUGUCUUAGUGGUUUAGAUUC [DMSMaPseq_invitro_SARS-CoV-2_Motif_135] | -0.471 | -0.105 | -0.164 | 0.03 |
| GAAGAGGGAGCAAUUGUUGGCGAAAUUUCACCAUUGCCUUCUCUUC [IAV_invivo_NS1_NEP_8_Motif_10+IAV_invivo_NS1_NEP_8_Motif_10] | -0.213 | 0.0993 | 0.262 | -0.045 |
| GAAGGCUAUUUGAACUCUACUAAUGUCACUAUUGCAACCUACUGUACUGGUUCUAUACCUUGUAGUGUUUGUCUUAGUGGUUUAGAUUCUUU | -0.467 | -0.505 | -0.458 | -0.541 |
| GAAGGUCUUAAUGACAACCUUC [SHAPE_invitro_SARS-CoV-2_Motif_33] | -1.39 | -1.28 | -0.502 | -0.78 |
| GAAGUCACACCUUC [SHAPE_invitro_SARS-CoV-2_Motif_534] | -0.517 | -0.137 | -0.725 | 0.0219 |
| GAAGUUACAACAACUCUGGAAGAAACUAAGUUCCUCACAGAAAACUUGUUACUUU [DMSMaPseq_invitro_SARS-CoV-2_Motif_72] | 0.97 | -0.304 | -0.321 | -0.508 |
| GAAUGCGUCAUCAUCUGAAGCAUUU | -0.61 | -1.1 | -0.405 | -0.994 |
| GAAUGGAGAACGCAGUGGGGCGCGAUCAAAACAACGUCGGCCCCAAGGUUUACCCAAUAAUACUGCGUCUUGGUUC | 0.849 | 0.452 | 0.382 | 0.148 |
| GAAUUUACACCUUUUGAUGUUGUUAGACAAUGCUCAGGUGUUACUUUC | -0.632 | 0.0292 | -0.394 | 0.167 |
| GACAAUGUCUUAUCUACUUUUAUUUCAGCAGCUCGGCAAGGGUUUGUUGAUUCAGAUGUAGAAACUAAAGAUGUUGUU | -0.776 | -0.599 | -0.111 | -0.56 |
